16 sequences from the supplement of paper PMC9170038 can be followed below.

The subject of the data set is K4 kissing-loop RNA reporter. Description: apparent KD of K4 kissing-loop reporter; higher = weaker reporter binding. To be noted: Eterna round: R107. The method, then:
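RNA-MaP round R107: designed RNA switches with theophylline, tryptophan, arginine or FMN aptamers are transcribed on-chip within common flanks. They are titrated with a labelled K4 kissing-loop RNA reporter in RNA-MaP buffer (100 mM Tris pH 7.5, 80 mM KCl, 4 mM MgCl2), without ligand or with the indicated ligand. Median apparent KD per design.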

Where [1] appears, read: input ligand: theophylline 20 uM.
Setting [2] is: input ligand: tryptophan 2.4 mM.
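Note: bound reporter read as fluorescence of individual clusters on recovered sequencing chips by microscopy, with normalized cluster intensities fitted with a binding model.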

“UGUGUUUACCUGACUCAGUGAUGUUGAGAAGGAGCGUGCGAACGCACAGGUAGGUCGCUCAACCUAAAUUCAGGUGAGCACUAAA”: the “apparent KD of K4 kissing-loop reporter” value reads like this: (input ligand: FMN 200 uM) 430 nM; (input ligand: arginine 13.2 mM) 443 nM; (input ligand: none) 499 nM; under setting [1], 611 nM; under setting [2], 398 nM.

Consider “UUAGAGAUCUCAGGAUAUCAGUGAUGUUGGUUUCCAGAUCUGAGAUAGAAUUCUAUCUCAGAUCAAUGAGAAGGGAGAUCUCAUU [AK4.1 Exc FMN B]”, for which the “apparent KD of K4 kissing-loop reporter” value (input ligand: FMN 200 uM) was determined as 535 nM; the “apparent KD of K4 kissing-loop reporter” value (input ligand: arginine 13.2 mM) was determined as 128 nM; the “apparent KD of K4 kissing-loop reporter” value (input ligand: none) is 151 nM; the “apparent KD of K4 kissing-loop reporter” value under setting [1] came to 132 nM; the “apparent KD of K4 kissing-loop reporter” value under setting [2] turned out to be 123 nM.

Turning to “UUAGAUGAUUCAUCAAGAUUGAUGAGGAAACGAGGACCGGUACGGCCGCCACUCGAGUGAUGUUCGAGAACCUCAUCAAUCAAUU [AK4.4 Exc Tryptophan A]”, the “apparent KD of K4 kissing-loop reporter” value is, setting by setting: (input ligand: FMN 200 uM) 162 nM; (input ligand: arginine 13.2 mM) 150 nM; (input ligand: none) 154 nM; under setting [1], 154 nM; under setting [2], 333 nM.

Take “UUAGUCAGAUUAUUAUUAGCCUGCGAGUCUAAGGAUAUCCGAAUUCGGAGAAGGUAGUGAUGUUACUUUGGCAGGCACUGACAUU [AK9 Exc FMN A]”: the “apparent KD of K4 kissing-loop reporter” value is, setting by setting: (input ligand: FMN 200 uM) 807 nM; (input ligand: arginine 13.2 mM) 357 nM; (input ligand: none) 431 nM; under setting [1], 414 nM; under setting [2], 351 nM.

For “UUAUAUACGAGUGAUGUUCGUUAUUUAUCAGAGGAUAUGCUUAAAUGCAGAAGGCUGUUUUUCUAUUUGAUAUUAAAUUUUAUAA [JR_Nu3_ExcFMNA_Sub027]”, the “apparent KD of K4 kissing-loop reporter” value is 81.6 nM (input ligand: FMN 200 uM); 89.3 nM (input ligand: arginine 13.2 mM); 69.6 nM (input ligand: none); 81.1 nM under setting [1]; 58.1 nM under setting [2].

“UUAUAUAUAUUAGAUACCAGUUUAAUGGAAACAAAUUAUGUUAUGAGUGAUGUUCAUGUAAGCCCUUGGCAGCUGGUAUGGGUUU [KL-XTheo-B18]”: the “apparent KD of K4 kissing-loop reporter” value (input ligand: FMN 200 uM) worked out at 235 nM; the “apparent KD of K4 kissing-loop reporter” value (input ligand: arginine 13.2 mM) worked out at 305 nM; the “apparent KD of K4 kissing-loop reporter” value (input ligand: none) is 237 nM; the “apparent KD of K4 kissing-loop reporter” value under setting [1] worked out at 322 nM; the “apparent KD of K4 kissing-loop reporter” value under setting [2] was found to be 207 nM.

In the case of “UUCCGGGCCGAAGGAUAUUGGAGUGAUGUUUCAAGACGUUCGUCCCAGCCCAUAGUAACUAUCGCCCAAGAAGGUCGUAUUGAAU [theeternabot_exclusion_KL_FMN_B_13]”, the “apparent KD of K4 kissing-loop reporter” value reads like this: (input ligand: FMN 200 uM) 227 nM; (input ligand: arginine 13.2 mM) 177 nM; (input ligand: none) 243 nM; under setting [1], 189 nM; under setting [2], 157 nM.

As to “UUCGAUCAGUGAUGUUGAUCAAUAGUCGAAGGAGCGCUAUAGAUAGCAGGUAGGUCGCGACUACAAGGUGUUAAGACACCUCGAA [Arg A SS t9]”, the “apparent KD of K4 kissing-loop reporter” value by setting is: (input ligand: FMN 200 uM) 505 nM; (input ligand: arginine 13.2 mM) 430 nM; (input ligand: none) 525 nM; under setting [1], 443 nM; under setting [2], 431 nM.

As for “UUCUUGAUGGAAACAUCGAGAAUUACUGAUACCAGUAUCGAUAGAUACCCUUGGCAGCAGAAUCAGUAAUAACGAGUGAUGUUCG [Ex Theophylline A K4 4]”, the “apparent KD of K4 kissing-loop reporter” value is 313 nM (input ligand: FMN 200 uM); 254 nM (input ligand: arginine 13.2 mM); 304 nM (input ligand: none); 321 nM under setting [1]; 243 nM under setting [2].

As to “UUGGUCUUUUAAGGAUAUCAUACUCCACUGAGCGAGUGAUGUUCGCUCCUGUUACGCCUGGGACCGUGAGAAGGUAAAGUACCGU [theeternabot_sameState_KL_FMN_B_5]”, the “apparent KD of K4 kissing-loop reporter” value (input ligand: FMN 200 uM) was found to be 149 nM; the “apparent KD of K4 kissing-loop reporter” value (input ligand: arginine 13.2 mM) stood at 138 nM; the “apparent KD of K4 kissing-loop reporter” value (input ligand: none) turned out to be 163 nM; the “apparent KD of K4 kissing-loop reporter” value under setting [1] was 147 nM; the “apparent KD of K4 kissing-loop reporter” value under setting [2] came to 137 nM.

On to “UUGUUUGGUUGAGAGGUUGGGCGAGAUGAUACCAGUAGAGAAGAGUACCCUUGGCAGCAUAGGAGAGAUAUAGUGAUGUUGUAUA [SSTheophA.R]”, for which the “apparent KD of K4 kissing-loop reporter” value reads like this: (input ligand: FMN 200 uM) 487 nM; (input ligand: arginine 13.2 mM) 424 nM; (input ligand: none) 420 nM; under setting [1], 525 nM; under setting [2], 402 nM.

On to “UUUAACGAGUGAUGUUCGAAGAGUAAUGGUGAGGAUAUCGAUUUUUCGAGAAGGCACCUCGAAGUGAUACGAAAGUAUCGCUUCG [FMN A 5]”, for which the “apparent KD of K4 kissing-loop reporter” value worked out at 171 nM (input ligand: FMN 200 uM); 266 nM (input ligand: arginine 13.2 mM); 266 nM (input ligand: none); 269 nM under setting [1]; 181 nM under setting [2].

Take “UUUAUAAUGUCGGCCGCCACUGGAUUAAUAUUUGUAUAAUCUAGUUCAAAGUGAUGUUUUGAGUCCAGGACCGGGACAUUUGUUA [JR_ExcTryptoB_Sub003]”: the “apparent KD of K4 kissing-loop reporter” value reads like this: (input ligand: FMN 200 uM) 570 nM; (input ligand: arginine 13.2 mM) 490 nM; (input ligand: none) 582 nM; under setting [1], 509 nM; under setting [2], 407 nM.

In the case of “UUUAUUUUCUGAGGAUAUCGUUUUACUGAAGUGAUGUUUCAGUAUUUUCAUAUUAUAUAUAAUUUUCGAGAAGGCAGUAUUAUUA [JR_Nu_SSFMNB_Sub027]”, the “apparent KD of K4 kissing-loop reporter” value runs as follows: (input ligand: FMN 200 uM) 83.5 nM; (input ligand: arginine 13.2 mM) 60.4 nM; (input ligand: none) 63.7 nM; under setting [1], 72.2 nM; under setting [2], 64.3 nM.

In the case of “UUUCCAGUGAUGUUGGAGAAAACCGAGGAAGGAGCGGACUCUUGUCCAGGUAGGUCGCCUCGUCUCCCAUUGGCAGAGCGGACCC [Enlaonbian]”, the “apparent KD of K4 kissing-loop reporter” value stood at 232 nM (input ligand: FMN 200 uM); 239 nM (input ligand: arginine 13.2 mM); 249 nM (input ligand: none); 574 nM under setting [1]; 211 nM under setting [2].

Take “UUUUUAUAAGAGGAUACCAGUACAAAUAAAGUACAUUAAUAGUAGAGUGAUGUUCUAAAGUACCCUUGGCAGCUUAGAGUAAGUU [ExTheophylB.C]”: the “apparent KD of K4 kissing-loop reporter” value by setting is: (input ligand: FMN 200 uM) 161 nM; (input ligand: arginine 13.2 mM) 281 nM; (input ligand: none) 174 nM; under setting [1], 239 nM; under setting [2], 115 nM.
